# Source: the nanobody polyreactivity screen of Harvey et al. (2022)
# Assay: yeast display, Sf9 membrane polyspecificity reagent, FACS + sequencing; frameworks hold sequencing errors
# How it was run: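 Sorting gates, low and high (top ~1%), were placed on anti-HA fluorescence to track expression and on streptavidin fluorescence to track reagent binding. A clone's polyreactivity label is taken from the gate it came out of. The reagent was 10% biotinylated, detergent-solubilized Sf9 membrane, applied for 1 hour at 4 °C to galactose-induced yeast display cells.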
row,Sequence,polyreactivity (PSR sort gate)
1,QVQLVESGGGLVQAGGSLRLSCAASGIIFHPYAMGWYRQAPGKERELVAVITWPGDSTYYADSVKGRFRISRDNAKNTVYLQMNSLKPEDTAVYYCNVDAWGTSGELPYDYWGQGTQVTVSS,low polyreactivity
2,QVQLVESGGGLVQAGGSLRLSCAASGRTFGGNVMGWYRQAPGKERELVAAITWSGGRTYYADSVKGRFTISRDNAKNTVYLQMNSLKPEDTAVYYCNARNGFTVKKFYYWGQGTQVTVSS,high polyreactivity
3,QVQLVESGGGLVQAGGSLRLSCAASGSTFPLNVMGWYRQAPGKERELVAAISSAGSTNYADSVKGRFTISRDNAKNTVYLQMNSLKPEDTAVYYCNADVRSTWYWLQYTPIYDYWGQGTQVTVSS,low polyreactivity
4,QVQLVESGGGSVQAGGSLRLSCAASGFIFDGYTMGWYRQAPGKERELVAAISRSGGRTYYADSVKGRFTISRDNAKHTVYLQLNSLKPEDTAVYYCAVRYRQYSQTVASDYGYWGQGTQVTVSS,high polyreactivity
5,QVQLVESVGGLVQAGGSLRLICAASGRTFRGYAMGWYRQAPGKERELVAAISSSGGRTYYADSVKGRFTISRDNAKNTVYLQMNSLKPEDTAVYYCAAAVTLSPAQYGYWGQGTQVTVSS,high polyreactivity
6,QVQLVESGGGLVQAGGSLRLSCAASGSIFQPYAMGWYRQAPGKERELVAAISSSGGSTTYADSVKGRFTISRDNAKNTVYLQMNSLKPEDTAVYYCAADSADDMGYWGQGTQVTVSS,low polyreactivity
7,QVQLVESGGGLVQAGGSLRLSCAASGRTFLYYAMGWYRQAPGKERELVAAISSGGSTNYADSVKGRFTISRDNAKNTVYLQMNSLIPEDTAVYDCNADYTSRETSDVIYEYDYWGQATQVTVSS,low polyreactivity
8,QVQLVESGGGLVQAGGSLRLSCAASGSIFADYTMGWYRQAPGKERELVAAISSDDSTYYADSVKGRFTISRDNAKNTVYLQMNSLKPEDTAVYYCNDDGSIGPEEYWGQGTQVTVSS,low polyreactivity
9,QVQLVESGGGLVQAGGSLRLSCAASGSIFGTYAMGWYRQAPGKERELVATISYGDGSTYYADSVKGRFTISRDNAKNTVYLQMNSLKPEDTAVYYCNTGVYSSGGPLDYWGQGTQVTVSS,low polyreactivity
10,QVQLVESGGGLVQAGGSLRLSCAASGLTVYYYAMGWYRQAPGKERELVASISRSGGSTYYADSVKGSFTISRDNAKNTVYLQMNSLKPEDTAVYYCNVSVYRCTVKGTFDMDHWGQGTQVTVSW,high polyreactivity
11,QVQLVESGGGLVQAGGSLRLSSAASGFTFARYAMGWYRQAPGKERELVAAITFSGTRTYYADSVKGRFTISRDNAKNTVYLQMNSLKPEDTAVYYCAAVVQTKAYRKAVYYFSSYDYWGQGTQVTVSS,high polyreactivity
12,QVQLVESGGGLVQAGGSLRLSCAASGSIFYGYAMGWYRQAPGKERELVASITSSGGSTYYADSVKGRFTISRDNAKNTVYLQMNSLKPEDTAVYYCNADGRPDWYVVRGGFEYWGQGTQVTVSS,low polyreactivity
13,QVQLVESGGGLVQAGGSLRLSCAASGNTLRTYGMGWYRQAPGKEREFVAAITYSGGSTYYADSVKGRFTISRDNAKNTVYLQMNSLKPEDTAVYYCAARYRSHYRRITPYDSWGQGTQVTVSS,high polyreactivity
14,QVQLVESGGGLVQAGGSLRLSCAASGRTFISYAMGWYRQAPGKERELVAAISSSGGSTYYADSVKGRFTISRDNAKNTVYLQMNSLIPEDTAVYYCNADSSASTYTFPFDYWGQGTQVTVSS,low polyreactivity
15,QVQLVESGGGLVQAGGSLRLSCAASGRTFYVYAMGWYRQAPGKERELVAAISWRGGSTYYADSVKGRFTISRDNAKNTVYLQMNSLKPEDTAVYYCATAGGDWYGVDYWGQGTQVTVSS,low polyreactivity
16,QVQLVESGGGLVQAGGSLRLSCAASGITFCYNTMGWYRQAPGKERELVAAISGSGGRTYYADSVKGRFTISRDNAKNTVYLQMNSLKPEDTAVYDCAARWQIWSSLYDYWGQGTQVTVSS,high polyreactivity
17,QVQLVESGGGIVQAGGSLRLSCAASVFTFRANTMGWYRPAPGKERELVAAISPSGGSTYYADSVKGRFTISRDNAKNTVYLQMNSLKPEDTAVYYCNADIEYRPGHGRLGDYDYWGQGTQVTVSS,low polyreactivity
18,QVQLEESGGGLVQAGGSLRLSCAASGITFDDYTMGWYRQAPGKERELVAAITRSGGSTYYADSVKGRFTISRDTAKITVSLQMNSLKPEDTAVYYCSRVKGRGFKNGYWGQGTKVTVSS,high polyreactivity
19,QVQLVESGGGLVQAGGSLRLSCAASGRIFYNYAMGWYRQAPGKERELLAAISWSGTSTYYADSVKGRFTISRDNAKNTVYLQMNSLKPEDTAVYYCATDRTYTARGYYLEYHRYDYRGQGTQVTVSS,low polyreactivity
20,PVQLVESGGGLVQAGGSLRLSCAASGFIFRRNAMGWYRQAPGKERELVASIRSGGSTKYADSVKGRFTISRDNAKNTVYLQMTSLKPEDTAVYYCNAEDPGYAVRWYWFKYDYWGQGTQVSVSS,low polyreactivity
21,QVQLVESGGGLVEAGGSLRLTCEASGSIISYYVMGWYRQAPGKERELVAAISSSGGRTYYADSVKGRFTISRDNSKNTVYLQMNSLKPDDNAVYYCAARDRPSPYYYWGQGTQVNVSS,high polyreactivity
22,QDQLVESGGGLVQAGGSLRLIFAASGSIFNGYAMGWSRQAPGKERELVADIRSGGSTYYADSVMGRFTISRDNAKNTVYLQMNSLKPEDTAVYYGAADTITDGYDYWGQGSQVTVSS,low polyreactivity

row,Sequence,polyreactivity (PSR sort gate)
1,QVQLVESGGGLVQAGGSLRLSCAASGFSFSRYAMGWYRQAPGKEREFVASITRRGGSTYYADSVKGRFTISRDNAKNTVYLQMNSLKPEDTAVYYCNAGYTWGRFEYWGQGTQVTVSS,high polyreactivity
2,QVQLEESGAGLVQAGGSLRLSCAASGITFYYNDMGWYRQAPGKEREMVASISGDGGSTYYADSVKGRFTISRDNAKNTVYLQMNSLKPEDTAVFYCAASAGYYEVLYDYWGQGTQVTVSS,low polyreactivity
3,QVQLVESGGGLVQAGGSLRLSCAASGPTFYYYDMGLYRPAPGKERELVAAISATGGRTYYADSVKGRFTISRDNAKNTVYLQMNSLKPEDTAVYYCAAETPYLRRRLGMDYWGQGTQVTVSS,high polyreactivity
4,QVQLVESGGGLVQAGGSLRLSCAASGSTFQIYAMGWYRQAPGNERELVAAITSSSSTNYADSVKGRFTISRDNAKNTVYLQMNSLKPEDTAVYYCAADVSWRSNWYDYWGQGTQVTVSS,low polyreactivity
5,QVQLVESGGGLVQAGGSLRLSCAASGSTFDTYAMGWYRQAPGKERELVAAISRSGTSTYYADSVKGRFTISRDNAKNTVYLQMISLKPEDTAVYYCDKDAGLQKYHHDYWGQGTQVTVSS,low polyreactivity
6,QVQLVESGGGLVQAGGSLRLSLAASGLSLRNYAMGWYRQAPGKERELVADITTGGGRTYYADSVKGRFTISRDNAKNTVYLQMNSLKPEDTAVYYCAAPTHLHGHGNQNEFYYWGQGTQVTVSS,low polyreactivity
7,QVQLVESGGGLDQAGGSLRLSCAASGLTSLGNAMGWYRQAPGKERELVAAITRTGTSTYYADSVKGRFTISRDNAKNTVYLQMNSLKPEDTAVYYCNADGQSQYRYGSQYRYDYWGQGTQVTVSS,low polyreactivity
8,QVQLVESGGGLVQAGGSLRLSCAASGYTFKTNDMGRYRQAPGKEREFVAAIDSGGNTYYADSVKGRFTISRDNAKNTVYLQMNSVKPEDTAVYYCGAYRDYQYDYWGQGTQVTVSS,low polyreactivity
9,QVQLVESGGGLVQAGGSLRLSCAASGNIFLDYAMGWYRQAPGKEREWVAAITSGGSTNYADSVKGRFTISRDNAKNTVYLQMNSLKPEDTAVYYCNKDVWDGYDWPEFDYWGQGTQVTVSS,low polyreactivity
10,QVQLVESGGGLVQAGGSLRLSCAASGIIFTYYDMGWYRQAPGKERELVAGIDYSGTSTYYADSVKGRFTISRDNAKNTVYLQMNSLKPEDTAVYYCAAVPVWGGYFAGEYYYWGQGTQVTVSS,high polyreactivity
11,QVQLVESGGGLVQAGGSLRLSCAASGSIFYYNAMGWYRQAPGKERELVASISERGGITRYADSVKGRFTISRDNAKNTVYLQMNSLKREDTAVYYCNRSISLTFYAYAGYFLALDYWGQGTQVTVSS,low polyreactivity
12,QVQLVESGGGLVQAGGSLRLSSAASGYFNFFYAMGRYRQAPGKERELVASITYRGGSTYYADSVKGRFTLSRDNSKNTVYLQMNRLKPEDTAVYYCNVDGGGPLGPQGFPFDYWGQGTQVTVSS,low polyreactivity
13,QVQLLESGGGLVQAGGSLRLSCAASGSTFTYNAMGWYRQAPGKERELVAAISSSGGSTYYADSVKGRFTISRDNAKNTVYLQMTSLNPEDTAVYYCAKRWLYTSAFRKMDYWGQGTQVTVSS,high polyreactivity
14,QVQLVESGGGLVQAGGSLRLSCAASGRIFDLYTMGWYRQAPGKERELVAAIRWSDGSTYYADSVKGRFTISRDNAKNTVYLQMNSLKPEDTAVYYCAADSRTSYYNDDYDYWGQGTQVTVSS,low polyreactivity
15,QVQLVESGGGLVQAGGSLRLSCAASGITFRRYAMGWYRQAPGKERELVASITRGGSTSYADSVKGRFRFSRDNAKNTVYLQMNSLKPEDTAVYYCAADAFRGFYWGQGTQVTVSS,high polyreactivity
16,QVQLVESGGGLVQAGGSLRLSCAASGITIAGYAMGWYRQAPGKERELVAAITIGGRTYYADSVKGRFTISRDNAKNTVYLQMNSLKPVDTAVYYCAAARGFWWYDYWGQGTQVTVSS,high polyreactivity
17,QVQLVESGGGLVQAGGSLRLSCAASGSIFYGNAMGWYRQAPGKERELVASITYSGGTTNYADSVKGRFTISRDNAKNTVYLQMNSLKPEDTAVYYCNADIYPDRYGSTNYDFNYWGQGTQVTVSS,low polyreactivity
18,QVQLVESGGGLVQAGGSLRLSCAASGSIFRYYAMGWYRQAPGKERELVAAITASGGRTHYADSVKGRFTISRDNAKNTVYLQLNSLKLEDTAVYYCAADLYYAWYWKQHYDYWGQGTQVTVSS,high polyreactivity
19,QDQLVESGGGLVQAGGSLRLSCAASGLIFYDNLGWYRQAPGKERELVAAISSSGGSTSYADSVKGRFTISRDNAKNTVYLQMNSLKPEDTAVYYCAADSYPAYLGFVGFDYWGQGTQVTVSS,low polyreactivity
20,QVQLVESGGRLVQAGGSLRLSCAASGSTFGRYTMGWYRQAPGKERELVTAITSSGDSTYYADSVKGRFTISRDNAKNTVYLQMNSLKPEDTAVYDCAADYADLNDYWGQGTQVTVSS,low polyreactivity
21,QVQLVESGGGLVQAGGSLRLSCAASGFQYGMGWYRQAPGKERELVAAISRDGSTNYADSVKGRFTISRDNAKNTVYLQMNSLKPEDTAVYYCAVDFYFLYGWGQGTQVTVSS,low polyreactivity
